These results are taken from publication doi:10.1101/2021.02.10.430713.

The target in this assay is Listeria monocytogenes c-di-AMP effector protein Lmo0553 (Listeria monocytogenes). As to the kind of experiment: crystal structure.

The term stoichiometry N denotes the number of molecules, sites or subunits per partner or assembly. As to “Listeria monocytogenes c-di-AMP effector protein Lmo0553 (natural protein)”, the stoichiometry N came to 2.
